Measured values taken from US9675789B2, “Embeddable micro-needle patch for transdermal drug delivery and method of manufacturing the same” (NATIONAL CHENG KUNG UNIVERSITY, priority 2012, dated 2017).

Tested on: IgG antibodies induced by ovalbumin
Assay: immunity test: IgG antibodies induced by ovalbumin in blood serum, ELISA 450 nm absorbance
Assay type: in vivo, sprague dawley (SD) rats
Conditions: SD rats, 1 mg ovalbumin at zero and fourteenth day, seventh day
Protocol: In another aspect of the embodiment, sprague dawley (SD) rats having four to six weeks of age are divided into three groups. Immune response is induced at zero day and fourteenth days by respectively encapsulating 1 mg of ovalbumin in the embeddable micro-needle patch for transdermal drug delivery, injecting saline in muscles, and injecting 1 mg of ovalbumin solution in muscles so as to produce correspondingly IgG antibodies, and blood is drawn from venous sinus under collarbones of the rats at zero day, seventh day, fourteenth day and twenty-first day. The drawn blood is detected by ELISA (enzyme-linked immunosorbent assay) to obtain 450 nm absorbance such that the contents of IgG antibodies antibody induced by ovalbumin in blood serum are determined.

B1: ovalbumin (protein, UniProt P01012 2-386, looked up)
Ovalbumin: GSIGAASMEFCFDVFKELKVHHANENIFYCPIAIMSALAMVYLGAKDSTRTQINKVVRFDKLPGFGDSIEAQCGTSVNVHSSLRDILNQITKPNDVYSFSLASRLYAEERYPILPEYLQCVKELYRGGLEPINFQTAADQARELINSWVESQTNGIIRNVLQPSSVDSQTAMVLVNAIVFKGLWEKAFKDEDTQAMPFRVTEQESKPVQMMYQIGLFRVASMASEKMKILELPFASGTMSMLVLLPDEVSGLEQLESIINFEKLTEWTSSNVMEERKIKVYLPRMKMEEKYNLTSVLMAMGITDVFSSSANLSGISSAESLKISQAVHAAHAEINEAGREVVGSAEAGVDAASVSEEFRADHPFLFCIKHIATNAVLFFGRCVSP
notes: 1 mg of ovalbumin solution injected in muscles, conventional muscle injection comparison group
Q: Which “expression of induced IgG antibodies in blood serum compared with saline control group” value does the source give for B1 here?
A: Its value is “can be discovered”.
